Source: article PMC5385343, “Crystal Structure of Glyceraldehyde-3-Phosphate Dehydrogenase from the Gram-Positive Bacterial Pathogen A. vaginae, an Immunoevasive Factor that Interacts with the Human C5a Anaphylatoxin” (Frontiers in Microbiology, 2017)

Experiments:
[1] = tested on: NC(=O)c1ccc[n+]([C@@H]2O[C@H](COP(=O)(O)OP(=O)(O)OC[C@H]3O[C@@H](n4cnc5c(N)ncnc54)[C@H](O)[C@@H]3O)[C@@H](O)[C@H]2O)c1; assay: purified protein; settings: 40 mM Tris-HCl pH 8.5, 2 mM EDTA, 25 °C, 0.1 μM enzyme, NAD+ varied 0.03-2 mM, co-substrates G3P and Pi, fixed concentrations not given, varied: cofactor
O=CC(O)COP(=O)(O)O = assay: purified protein; settings: 40 mM Tris-HCl pH 8.5, 2 mM EDTA, 25 °C, 0.1 μM enzyme, G3P varied 0.6-15 mM, co-substrates NAD+ and Pi, fixed concentrations not given
AvGAPDH = target: T1, AvGAPDH (Fannyhessea vaginae, UniProt F1T6A5); assay: X-ray crystal structure, […] Å; assay type: binding; settings: crystallised with 0.6 mM NAD+, 0.1 M sodium citrate pH 5.5, 20% PEG 3000; one NAD+ per protomer, active site
T1 construct: gene gap; full-length, 356 residues, N-terminal His6 tag and TEV site (tag removal not described), pET21b, E. coli Rosetta(DE3)pLysS; homotetramer

crystal structure = target: the molecule itself; assay: crystal structure

Molecule AvGAPDH (Fannyhessea vaginae DSM 15829) has a Km [1] of 80 ± 30 µM, a Vmax [1] of 186000 µM/min/mg and a kcat [1] of 31 ± 3 s⁻¹. It also gave a kcat/Km [1] of 384000 ± 150000 M⁻¹ s⁻¹, a Km (O=CC(O)COP(=O)(O)O) of 2600 ± 500 µM and a Vmax (O=CC(O)COP(=O)(O)O) of 342000 µM/min/mg. For the same molecule, the kcat (O=CC(O)COP(=O)(O)O) was 57 ± 6 s⁻¹ and the kcat/Km (O=CC(O)COP(=O)(O)O) was 22000 ± 5000 M⁻¹ s⁻¹.

`NC(=O)c1ccc[n+]([C@@H]2O[C@H](COP(=O)(O)OP(=O)(O)OC[C@H]3O[C@@H](n4cnc5c(N)ncnc54)[C@H](O)[C@@H]3O)[C@@H](O)[C@H]2O)c1` [NAD^+] was tested, and the “X-ray crystal structure, 2.19 Å” value (AvGAPDH) was “NAD^+ molecules are tightly bound in an elongated cleft in all four protomers”.

B1: D-glyceraldehyde-3-phosphate dehydrogenase from Atopobium vaginae, full-length, hexahistidine-tagged (enzyme)
chain: MKEDRLPANLAKGESMAVKVAINGFGRIGRLAFRQMFGHEGSEIVAINDLTDPKMLANLLKYDSSQGNYARNHSVVAGEDSITVDGKTIKIYKEADAHNLPWGELNVDVVLECTGFYTSKAKAQAHIDAGAKKVVISAPAGKDLPTIVYNVNHEILTKDDNIISAASCTTNCLAPMAKALNDFAPIQSGIMSTIHAFTGDQMVLDGPHRKGDLRRARAAAINIVPNSTGAAKAIGLVIPELNGKLIGSAQRVPVPTGSTTLLFAVVKSDKEITVDSINAAMKAASDPETFGYNEDPIVSSDIIGMTYGSLFDATQTMVQDLGNGLYQVEVVSWYDNENSYTSQMVRTIKYFEKFVA
notes: also called AvGAPDH; GAPDH from A. vaginae; source: E. coli Rossetta(DE3)pLysS, purified (HisTrap, Superdex 200)
In the case of B1, the “stoichiometry N” value (crystal structure) is reported as 4.
